Results on four molecules are retold here after patent publication US20100104568A1 (published 2010).

Experiment [1] has as its target human RANK-L, full length, membrane-bound, expressed on HEK293T cells (human) (UniProt O14788). Description: FACS, HEK293T with human RANK-L, 80 pM Nanobody.
Experiment [2] has the same target. The experiment can be described thus: FACS, HEK293T with human RANK-L, 2000 pM Nanobody.
Experiment [3] shares this target. Description: FACS, HEK293T with human RANK-L, 16 pM Nanobody.
The target of experiment [4] is cynomolgus RANK-L, full length, membrane-bound, expressed on HEK293T cells (cynomolgus monkey). Description: FACS, HEK293T with cynomolgus RANK-L, 400 pM Nanobody.
Experiment [5] has as its target human RANK-L, full length, membrane-bound, expressed on HEK293T cells (human) (UniProt O14788). Description: FACS, HEK293T with human RANK-L, 400 pM Nanobody.
Experiment [6] addresses cynomolgus RANK-L, full length, membrane-bound, expressed on HEK293T cells (cynomolgus monkey). Description: FACS, HEK293T with cynomolgus RANK-L, 2000 pM Nanobody.
Experiment [7] deals with human RANK-L, full length, membrane-bound, expressed on HEK293T cells (human) (UniProt O14788). The experiment can be described thus: FACS, HEK293T with human RANK-L, 3.2 pM Nanobody.
Experiment [8] has as its target T1, human RANK-L (human, UniProt O14788 140-317).
T1 chain: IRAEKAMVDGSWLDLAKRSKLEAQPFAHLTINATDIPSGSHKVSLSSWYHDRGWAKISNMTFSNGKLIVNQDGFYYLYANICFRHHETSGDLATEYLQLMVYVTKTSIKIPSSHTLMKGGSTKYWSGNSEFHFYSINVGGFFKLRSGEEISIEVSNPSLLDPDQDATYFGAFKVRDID
Description: competition ELISA.

Experiment [9] has as its target T1, human RANK-L. The experiment can be described thus: cell-based or functional assay.
For experiment [10], the target named is T1, human RANK-L. The experiment can be described thus: competition ELISA.

Turning to irrelevant Nanobody (VHH), the PE mean fluorescence in experiment [1] was determined as 82; in experiment [2], 87; in experiment [3], 77; in [4], 140; in experiment [5], 90; in experiment [6], 149. In experiment [7], this molecule gave a PE mean fluorescence of 84.

B1: RANKL003p (VHH)
chain: EVQLVESGGGLVQPGGSLRLSCAASGRTFSRSAMGWFRQAPGKGREFVGFITGSGGTTYYADSVKGRFTISRDNAQNPVYLQMNSLRPEDTAVYYCAVYRRTYISSTYSESSEYDYWGQGTLVTVSSGGGGSGGGGSGGGGSGGGGSGGGGSGGGGSEVQLVESGGGLVQPGGSLRLSCAASGRTFSRSAMGWFRQAPGKGREFVGFITGSGGTTYYADSVKGRFTISRDNAQNPVYLQMNSLRPEDTAVYYCAVYRRTYISSTYSESSEYDYWGQGTLVTVSSGGGC
modifications: PEGylated with maleimide PEG, average MW 40,000; residue not stated (the entry ends in GGGC)
B1 came in with an EC50 with human RANK-L [8] of 0.0409 nM.

B2: osteoprotegerin (receptor, UniProt O00300 22-401, looked up)
chain: ETFPPKYLHYDEETSHQLLCDKCPPGTYLKQHCTAKWKTVCAPCPDHYYTDSWHTSDECLYCSPVCKELQYVKQECNRTHNRVCECKEGRYLEIEFCLKHRSCPPGFGVVQAGTPERNTVCKRCPDGFFSNETSSKAPCRKHTNCSVFGLLLTQKGNATHDNICSGNSESTQKCGIDVTLCEEAFFRFAVPTKFTPNWLSVLVDNLPGTKVNAESVERIKRQHSSQEQTFQLLKLWKHQNKDQDIVKKIIQDIDLCENSVQRHIGHANLTFEQLRSLMESLPGKKVGAEDIEKTIKACKPSDQILKLLSLWRIKNGDQDTLKGLMHALKHSKTYHFPKTVTQSLKKTIRFLHSFTMYKLYQKLFLEMIGNQVQSVKISCL
Regarding B2, the IC50, RANK-L induced NF-kappaB reporter (luciferase) in HEK293T with human RANK-L [9] worked out at 6.03 nM.

B3: RANKL001p (VHH)
chain: EVQLVESGGGLVQPGGSLRLSCAASGFTFSSYPMGWFRQAPGKGREFVSSITGSGGSTYYADSVKGRFTISRDNAKNTLYLQMNSLRPEDTAVYYCAAYIRPDTYLSRDYRKYDYWGQGTLVTVSSGGGGSGGGSEVQLVESGGGLVQPGGSLRLSCAASGFTFSSYPMGWFRQAPGKGREFVSSITGSGGSTYYADSVKGRFTISRDNAKNTLYLQMNSLRPEDTAVYYCAAYIRPDTYLSRDYRKYDYWGQGTLVTVSSGGGC
modifications: PEGylated with maleimide PEG, average MW 40,000; residue not stated (the entry ends in GGGC)
B3: the IC50 with human RANK-L [10] worked out at 0.0465 nM.
